Switch fluorescence ratio data for 79 sequences are collected here from the supplement of paper PMC10126150.

± gives the standard deviation of the averaged measurements.

The subject of this data set is ATP. The experiment in a line: switch fluorescence ratio, 500 uM ATP over buffer (Cy3 cluster intensity, sum of 5 cycles each) (fold (ratio)); higher = stronger signal-on switching upon ATP binding; sequences stand for … in TCGTCGGCAGCGTCAGATGTGTATAAGAGACAGTTTTTTTTTTTTTTTTTTTTTTTTT…TC. The note with it: aptamer strand: ATP DNA aptamer (quencher-CACCTGGGGGAGTATTGCGGAGGAAGG + anchor), 100 nM annealed; ATP concentration: 500 uM. Summed up:
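Exposure to 500 uM ATP lasted 15 min at 22 °C before imaging, and a selection-buffer image was taken beforehand, for Cy3-labelled switching-strand clusters on a modified Illumina MiSeq flow-cell annealed to 100 nM quencher-labelled ATP aptamer. Five buffer/ATP cycles were run with NaOH stripping and re-annealing between them. The fluorescence ratio per cluster is summed target-cycle over summed buffer-cycle Cy3 intensity, averaged per switch-domain sequence. Clusters outside 100-1000 RFU were excluded.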
On to GCCAAAGCGG, for which the switch fluorescence ratio came out at 0.997 ± 0.014.
Take AGCATTATCT: the switch fluorescence ratio is 1.09 ± 0.03.
For the sequence CTGGGTTTCG, the switch fluorescence ratio was determined as 0.974 ± 0.042.
To AGGGATGTTG belongs 0.995 ± 0.013.
TACGTTTTGT: the switch fluorescence ratio is 1.01 ± 0.011.
Turning to AAAGAGCCTT, the switch fluorescence ratio amounted to 1.13 ± 0.2.
On to TATAAGTACG, for which the switch fluorescence ratio was 1.27 ± 0.016.
Regarding CGTTTGTCGT, the switch fluorescence ratio came to 1.04 ± 0.031.
As for GTTCTGGGCT, the switch fluorescence ratio is 0.973 ± 0.016.
For AAATTCGTTA the value was 0.983 ± 0.048; for TGGGGAGAGG, 1.02 ± 0.037.
For the sequence CCAGGTTATC, the switch fluorescence ratio was 1.04 ± 0.032.
For TGCTTGGTTT the value was 1.02 ± 0.018.
For AGTTAGTTAG the value was 0.987 ± 0.011; for GAGGGTATGG, 1.014 ± 0.0075; for GCATGTCGAT, 1.02 ± 0.023.
As for CAACGGGGGT, the switch fluorescence ratio stood at 1.03 ± 0.018.
To CTTCACCAAC belongs 1.19 ± 0.013; to TTGAGCTTGT, 1.02 ± 0.027; to GGGAAGGTAG, 0.995 ± 0.058.
For AATACGTTAG the value was 1.01 ± 0.027; for GGTTTGCAGT, 1.003 ± 0.0093.
Turning to TTGTTGAAAT, the switch fluorescence ratio turned out to be 1.03 ± 0.074.
For CAGTCGTGGA, the switch fluorescence ratio came out at 0.969 ± 0.016.
For TATATTTGTC the value was 1.04 ± 0.032.
On to AACGCGGTAT, for which the switch fluorescence ratio turned out to be 1.03 ± 0.095.
As to TTCGGGGATG, the switch fluorescence ratio was determined as 0.991 ± 0.048.
As for GTCAGGGCGA, the switch fluorescence ratio came out at 0.9931 ± 0.0023.
For TGTAGCAGCT the value was 1.12 ± 0.045; for ATGGTTTAGG, 0.988 ± 0.038; for TTAATAAGTG, 0.964 ± 0.028.
With GTTGTGCGTA, the switch fluorescence ratio came to 0.994 ± 0.031.
As to ATTTGTAAGA, the switch fluorescence ratio was determined as 0.9927 ± 0.0045.
With CCCTATTTTT, the switch fluorescence ratio was determined as 1.01 ± 0.035.
To TCCACGGGTA belongs 1.08 ± 0.068; to AGAATGGTGT, 1.02 ± 0.038.
With ACATTCCAAA, the switch fluorescence ratio worked out at 1.03 ± 0.013.
On to ATAATTTGCC, for which the switch fluorescence ratio is 1.01 ± 0.05.
AGTAGGTGGC: the switch fluorescence ratio was 1 ± 0.052.
GCGAGCAGTA: the switch fluorescence ratio came out at 1.01 ± 0.028.
For AACTGCTGTA the value was 0.999 ± 0.02; for TTGGACGGTA, 1.06 ± 0.1.
Consider TCGATGGTTT, for which the switch fluorescence ratio stood at 1.013 ± 0.01.
TTACTATGTT: the switch fluorescence ratio is 0.999 ± 0.018.
In the case of ACTAGAGGTT, the switch fluorescence ratio amounted to 1.06 ± 0.039.
On to TTAAGTGTAC, for which the switch fluorescence ratio came to 1.03 ± 0.026.
For the sequence ATATGTATGG, the switch fluorescence ratio was 0.968 ± 0.011.
With GATACTCGCG, the switch fluorescence ratio came to 1.03 ± 0.0056.
As to ATTAGGTCTA, the switch fluorescence ratio was 1 ± 0.014.
As for TCAGGTACAT, the switch fluorescence ratio is 1.07 ± 0.014.
As for ACTGTTAGAT, the switch fluorescence ratio was found to be 1.02 ± 0.054.
For the sequence TGGGGGCGTC, the switch fluorescence ratio stood at 1.02 ± 0.036.
For GCGCTTGAGG the value was 1.006 ± 0.0083; for TCACTGGGTG, 1.23 ± 0.035.
To CAAGGAAGGA belongs 0.9967 ± 0.005.
For TCCTTCACCT the value was 1.24 ± 0.069.
For the sequence TAAGGCTGTT, the switch fluorescence ratio stood at 0.953 ± 0.023.
GGGGCAAGCG: the switch fluorescence ratio was determined as 1.04 ± 0.028.
For AGGATCGGTA the value was 0.987 ± 0.022; for TTCACCGGGA, 0.9932 ± 0.007.
Take ACGAACAGCG: the switch fluorescence ratio was 1.153 ± 0.004.
To TTGCGGCGCT belongs 1.01 ± 0.043.
Consider ATGCTGGGGT, for which the switch fluorescence ratio was 0.986 ± 0.021.
To ATGTCCTAGC belongs 1.03 ± 0.0038.
TGGATACTTA: the switch fluorescence ratio turned out to be 1.02 ± 0.013.
On to GAGCAAGAGT, for which the switch fluorescence ratio was 1.8 ± 0.046.
As to GGGATAGTGG, the switch fluorescence ratio was determined as 0.979 ± 0.03.
For CTTTCCGTGC, the switch fluorescence ratio was determined as 1.32 ± 0.035.
In the case of TGCAGGGGGT, the switch fluorescence ratio came to 1.09 ± 0.14.
With CACTGGTTAA, the switch fluorescence ratio amounted to 0.995 ± 0.013.
On to ATTGGGTGTT, for which the switch fluorescence ratio was 1.02 ± 0.029.
As to AGGGTTATGT, the switch fluorescence ratio amounted to 0.971 ± 0.03.
In the case of CCAATAGTTC, the switch fluorescence ratio came to 1.08 ± 0.022.
Consider ACTTAGTTTT, for which the switch fluorescence ratio came to 1.0386 ± 0.00082.
For the sequence ATCTGTCTAT, the switch fluorescence ratio came to 0.98 ± 0.026.
Take GGAGGCCTCG: the switch fluorescence ratio came to 0.982 ± 0.018.
To AGGGTCATTC belongs 0.975 ± 0.017; to CTGATTTTTT, 1.02 ± 0.045; to CGTCAGCACT, 1.79 ± 0.04.
